Assay results: US20140227324A1

Target: mouse IL12Rβ1 (IL12 Receptor Beta 1, transmembrane-containing form) (mouse) (UniProt Q60837)
Experiment: cell-based or functional assay

Chain of UniProt Q60837 (Q60837 20-738): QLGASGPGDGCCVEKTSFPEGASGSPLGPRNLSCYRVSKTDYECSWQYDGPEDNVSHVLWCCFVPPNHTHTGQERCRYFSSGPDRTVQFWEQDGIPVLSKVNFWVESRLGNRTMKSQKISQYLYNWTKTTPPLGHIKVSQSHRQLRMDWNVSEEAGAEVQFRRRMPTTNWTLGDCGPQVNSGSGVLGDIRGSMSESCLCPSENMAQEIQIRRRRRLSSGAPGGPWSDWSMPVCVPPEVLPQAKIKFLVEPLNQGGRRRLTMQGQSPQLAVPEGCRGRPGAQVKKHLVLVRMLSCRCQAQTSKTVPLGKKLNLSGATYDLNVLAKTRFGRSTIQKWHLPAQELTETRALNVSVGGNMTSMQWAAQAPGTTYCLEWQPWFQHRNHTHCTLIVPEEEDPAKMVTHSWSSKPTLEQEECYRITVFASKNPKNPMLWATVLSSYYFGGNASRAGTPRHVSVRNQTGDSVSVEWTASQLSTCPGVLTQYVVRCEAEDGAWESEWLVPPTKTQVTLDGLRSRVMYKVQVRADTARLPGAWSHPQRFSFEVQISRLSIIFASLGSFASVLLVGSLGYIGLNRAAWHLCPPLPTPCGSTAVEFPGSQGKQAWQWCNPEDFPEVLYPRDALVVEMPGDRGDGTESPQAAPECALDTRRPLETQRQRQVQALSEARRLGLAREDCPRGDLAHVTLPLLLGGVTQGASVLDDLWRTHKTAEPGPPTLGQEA

| STAT4 activity (GAS-promoter luciferase reporter), IL12Rβ1ΔTM co-transfected alongside IL12Rβ1 and IL12Rβ2 | NIH/3T3 migration toward IL12(p40)2, IL12Rβ1ΔTM co-transfected alongside IL12Rβ1 | Substance |
| --- | --- | --- |
| 30 % increase |  | IL12 (ligand) |
|  | 50 % increase | IL12(p40)2 (ligand) |
